How the values were obtained:
human CGRP receptor = human CGRP receptor (human, UniProt Q16602 23-461; O60894 27-148); test: cell-based or functional assay
human PAC1 receptor = biological target: T1, human PAC1 receptor (human, UniProt P41586 24-468); test: cell-based or functional assay
T1 sequence: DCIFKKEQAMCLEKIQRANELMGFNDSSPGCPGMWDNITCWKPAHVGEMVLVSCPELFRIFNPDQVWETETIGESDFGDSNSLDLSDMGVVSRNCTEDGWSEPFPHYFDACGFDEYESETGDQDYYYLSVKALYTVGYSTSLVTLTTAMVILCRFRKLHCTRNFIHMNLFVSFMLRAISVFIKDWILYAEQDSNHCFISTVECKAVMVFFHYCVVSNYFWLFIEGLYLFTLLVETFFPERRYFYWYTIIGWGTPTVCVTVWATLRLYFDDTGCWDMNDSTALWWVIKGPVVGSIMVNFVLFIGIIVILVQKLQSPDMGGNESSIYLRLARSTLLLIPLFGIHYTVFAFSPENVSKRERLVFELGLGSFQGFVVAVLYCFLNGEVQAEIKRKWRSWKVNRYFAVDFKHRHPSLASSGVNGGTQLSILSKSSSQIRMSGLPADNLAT

human CGRP receptor, sequence (Q16602 23-461 limits assumed, chain 1 of 2): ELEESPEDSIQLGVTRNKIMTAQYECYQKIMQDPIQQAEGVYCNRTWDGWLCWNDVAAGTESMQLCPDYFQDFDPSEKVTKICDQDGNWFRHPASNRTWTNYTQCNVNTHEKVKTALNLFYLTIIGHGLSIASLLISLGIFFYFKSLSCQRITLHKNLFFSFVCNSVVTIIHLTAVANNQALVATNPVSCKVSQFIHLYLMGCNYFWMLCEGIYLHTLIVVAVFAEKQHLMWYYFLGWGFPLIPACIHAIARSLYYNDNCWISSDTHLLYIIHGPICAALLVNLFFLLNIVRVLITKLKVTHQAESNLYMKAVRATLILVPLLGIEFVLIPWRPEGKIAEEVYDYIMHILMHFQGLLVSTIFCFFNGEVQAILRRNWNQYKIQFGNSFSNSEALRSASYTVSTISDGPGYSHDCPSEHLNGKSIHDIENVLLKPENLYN
human CGRP receptor, sequence (O60894 27-148 limits assumed, chain 2 of 2): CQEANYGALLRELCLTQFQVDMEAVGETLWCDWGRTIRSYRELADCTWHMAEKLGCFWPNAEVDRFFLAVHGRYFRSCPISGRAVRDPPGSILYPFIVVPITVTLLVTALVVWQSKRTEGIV

B1: iPS:454769 (bispecific antibody, human IgG1, kappa, lambda, N297G)
light 1: QSVLTQPPSVSAAPGQKVTISCSGSYSNIGRYSVSWYQQLPGTAPKLLIYDNNKRPSGIPDRFSGSKSGTSATLGITGLQTGDEADYYCGTWDSRLSAVVFGGGTKLTVLGQPKAAPSVTLFPPSSEELQANKATLVCLISDFYPGAVTVAWKADSSPVKAGVETTTPSKQSNNKYAAKSYLSLTPEQWKSHRSYSCQVTHEGSTVEKTVAPTECS
heavy 1: QVQLVESGGGVVQPGRSLRLSCAASGFTFSSFGMHWVRQAPGKGLEWVAVISFDGSIKYSVDSVKGRFTISRDNSKNTLFLQMNSLRAEDTAVYYCARDRLNYYESSGYYHYKYYGMAVWGQGTTVTVSSASTKGPSVFPLAPSSKSTSGGTAALGCLVKDYFPEPVTVSWNSGALTSGVHTFPAVLQSSGLYSLESVVTVPSSSLGTQTYICNVNHKPSNTKVDKKVEPKSCDKTHTCPPCPAPELLGGPSVFLFPPKPKDTLMISRTPEVTCVVVDVSHEDPEVKFNWYVDGVEVHNAKTKPCEEQYGSTYRCVSVLTVLHQDWLNGKEYKCKVSNKALPAPIEKTISKAKGQPREPQVYTLPPSRKKMTKNQVSLTCLVKGFYPSDIAVEWESNGQPENNYKTTPPVLKSDGSFFLYSKLTVDKSRWQQGNVFSCSVMHEALHNHYTQKSLSLSPGK
light 2: EIVLTQSPATLSLSPGERATLSCRASKSVGRSLHWYQQKPGQAPRLLIKYASQSLSGIPARFSGSGSGTDFTLTISSLEPEDFAVYYCHQSSRLPFTFGPGTKVDIKRTVAAPSVFIFPPSDEQLKSGTASVVCLLNNFYPREAKVQWKVDNALQSGNSQESVTEQDSKDSTYSLESTLTLSKADYEKHKVYACEVTHQGLSSPVTKSFNRGEC
heavy 2: not shown
- Fold-improvement over 4E4 Ab (human CGRP receptor): 1.7 fold
- IC50 (human CGRP receptor): 0.32 nM
- Fold-improvement over 29G4v22 Ab (human PAC1 receptor): 7.2 fold
- IC50 (human PAC1 receptor): 0.78 nM

B2: iPS:454775 (bispecific antibody, human IgG1, kappa, lambda, N297G)
light 1: QSVLTQPPSVSAAPGQKVTISCSGSYSNIGRYSVSWYQQLPGTAPKLLIYDNNKRPSGIPDRFSGSKSGTSATLGITGLQTGDEADYYCGTWDSRLSAVVFGGGTKLTVLGQPKAAPSVTLFPPSSEELQANKATLVCLISDFYPGAVTVAWKADSSPVKAGVETTTPSKQSNNKYAAKSYLSLTPEQWKSHRSYSCQVTHEGSTVEKTVAPTECS
heavy 1: QVQLVESGGGVVQPGRSLRLSCAASGFTFSSFGMHWVRQAPGKGLEWVAVISFDGSIKYSVDSVKGRFTISRDNSKNTLFLQMNSLRAEDTAVYYCARDRLNYYESSGYYHYKYYGMAVWGQGTTVTVSSASTKGPSVFPLAPSSKSTSGGTAALGCLVKDYFPEPVTVSWNSGALTSGVHTFPAVLQSSGLYSLESVVTVPSSSLGTQTYICNVNHKPSNTKVDKKVEPKSCDKTHTCPPCPAPELLGGPSVFLFPPKPKDTLMISRTPEVTCVVVDVSHEDPEVKFNWYVDGVEVHNAKTKPCEEQYGSTYRCVSVLTVLHQDWLNGKEYKCKVSNKALPAPIEKTISKAKGQPREPQVYTLPPSRKKMTKNQVSLTCLVKGFYPSDIAVEWESNGQPENNYKTTPPVLKSDGSFFLYSKLTVDKSRWQQGNVFSCSVMHEALHNHYTQKSLSLSPGK
light 2: EIVLTQSPATLSLSPGERATLSCRASKSVGWSLHWYQQKPGQAPRLLIKYASQSLSGIPARFSGSGSGTDFTLTISSLEPEDFAVYYCHQSSRLPFTFGPGTKVDIKRTVAAPSVFIFPPSDEQLKSGTASVVCLLNNFYPREAKVQWKVDNALQSGNSQESVTEQDSKDSTYSLESTLTLSKADYEKHKVYACEVTHQGLSSPVTKSFNRGEC
heavy 2: not shown
- Fold-improvement over 4E4 Ab (human CGRP receptor): 1.4 fold
- IC50 (human CGRP receptor): 0.38 nM
- Fold-improvement over 29G4v22 Ab (human PAC1 receptor): 6.7 fold
- IC50 (human PAC1 receptor): 0.83 nM

B3: iPS:454771 (bispecific antibody, human IgG1, kappa, lambda, N297G)
light 1: QSVLTQPPSVSAAPGQKVTISCSGSYSNIGRYSVSWYQQLPGTAPKLLIYDNNKRPSGIPDRFSGSKSGTSATLGITGLQTGDEADYYCGTWDSRLSAVVFGGGTKLTVLGQPKAAPSVTLFPPSSEELQANKATLVCLISDFYPGAVTVAWKADSSPVKAGVETTTPSKQSNNKYAAKSYLSLTPEQWKSHRSYSCQVTHEGSTVEKTVAPTECS
heavy 1: QVQLVESGGGVVQPGRSLRLSCAASGFTFSSFGMHWVRQAPGKGLEWVAVISFDGSIKYSVDSVKGRFTISRDNSKNTLFLQMNSLRAEDTAVYYCARDRLNYYESSGYYHYKYYGMAVWGQGTTVTVSSASTKGPSVFPLAPSSKSTSGGTAALGCLVKDYFPEPVTVSWNSGALTSGVHTFPAVLQSSGLYSLESVVTVPSSSLGTQTYICNVNHKPSNTKVDKKVEPKSCDKTHTCPPCPAPELLGGPSVFLFPPKPKDTLMISRTPEVTCVVVDVSHEDPEVKFNWYVDGVEVHNAKTKPCEEQYGSTYRCVSVLTVLHQDWLNGKEYKCKVSNKALPAPIEKTISKAKGQPREPQVYTLPPSRKKMTKNQVSLTCLVKGFYPSDIAVEWESNGQPENNYKTTPPVLKSDGSFFLYSKLTVDKSRWQQGNVFSCSVMHEALHNHYTQKSLSLSPGK
light 2: EIVLTQSPATLSLSPGERATLSCRASKSVGRSLHWYQQKPGQAPRLLIKYASQSLSGIPARFSGSGSGTDFTLTISSLEPEDFAVYYCHQSSRLPFTFGPGTKVDIKRTVAAPSVFIFPPSDEQLKSGTASVVCLLNNFYPREAKVQWKVDNALQSGNSQESVTEQDSKDSTYSLESTLTLSKADYEKHKVYACEVTHQGLSSPVTKSFNRGEC
heavy 2: not shown
- Fold-improvement over 4E4 Ab (human CGRP receptor): 1.4 fold
- IC50 (human CGRP receptor): 0.37 nM
- Fold-improvement over 29G4v22 Ab (human PAC1 receptor): 7.6 fold
- IC50 (human PAC1 receptor): 0.84 nM

B4: iPS:454773 (bispecific antibody, human IgG1, kappa, lambda, N297G)
light 1: QSVLTQPPSVSAAPGQKVTISCSGSYSNIGRYSVSWYQQLPGTAPKLLIYDNNKRPSGIPDRFSGSKSGTSATLGITGLQTGDEADYYCGTWDSRLSAVVFGGGTKLTVLGQPKAAPSVTLFPPSSEELQANKATLVCLISDFYPGAVTVAWKADSSPVKAGVETTTPSKQSNNKYAAKSYLSLTPEQWKSHRSYSCQVTHEGSTVEKTVAPTECS
heavy 1: QVQLVESGGGVVQPGRSLRLSCAASGFTFSSFGMHWVRQAPGKGLEWVAVISFDGSIKYSVDSVKGRFTISRDNSKNTLFLQMNSLRAEDTAVYYCARDRLNYYESSGYYHYKYYGMAVWGQGTTVTVSSASTKGPSVFPLAPSSKSTSGGTAALGCLVKDYFPEPVTVSWNSGALTSGVHTFPAVLQSSGLYSLESVVTVPSSSLGTQTYICNVNHKPSNTKVDKKVEPKSCDKTHTCPPCPAPELLGGPSVFLFPPKPKDTLMISRTPEVTCVVVDVSHEDPEVKFNWYVDGVEVHNAKTKPCEEQYGSTYRCVSVLTVLHQDWLNGKEYKCKVSNKALPAPIEKTISKAKGQPREPQVYTLPPSRKKMTKNQVSLTCLVKGFYPSDIAVEWESNGQPENNYKTTPPVLKSDGSFFLYSKLTVDKSRWQQGNVFSCSVMHEALHNHYTQKSLSLSPGK
light 2: EIVLTQSPATLSLSPGERATLSCRASKAVGWSLHWYQQKPGQAPRLLIKYASQSLSGIPARFSGSGSGTDFTLTISSLEPEDFAVYYCHQSSRLPFTFGPGTKVDIKRTVAAPSVFIFPPSDEQLKSGTASVVCLLNNFYPREAKVQWKVDNALQSGNSQESVTEQDSKDSTYSLESTLTLSKADYEKHKVYACEVTHQGLSSPVTKSFNRGEC
heavy 2: not shown
- Fold-improvement over 4E4 Ab (human CGRP receptor): 0.9 fold
- IC50 (human CGRP receptor): 0.57 nM
- Fold-improvement over 29G4v22 Ab (human PAC1 receptor): 7.7 fold
- IC50 (human PAC1 receptor): 0.83 nM

Reference: patent US20220363770A1 (Amgen, published 2022)
